{"source": "patent US6037158A", "about": "“Alcohol dehydrogenase and its use for the enzymatic production of chiral hydroxy compounds” (priority 1996, dated 2000)", "molecules": {"B1": {"name": "alcohol dehydrogenase from Lactobacillus brevis: stable R-specific NADP-dependent alcohol dehydrogenase purified to homogeneity from Lactobacillus brevis DSM 20054 (protein)", "chain": "MSNRLDGKVAIITGGTLGIGLAIATKFVEEGAKVMITGRHSDVGEKAAKSVGTPDQIQFFQHDSSDEDGWTKLFDATEKAFGPVSTLVNNAGIAVNKSVEETTTAEWRKLLAVNLDGVFFGTRLGIQRMKNKGLGASIINMSSIEGFVGDPSLGAYNASKGAVRIMSKSAALDCALKDYDVRVNTVHPGYIKTPLVDDLPGAEEAMSQRTKTPMGHIAEPNDIAYICVYLASNESKFATGSEFVVDGGYTAQ"}}, "key": {"[1]": {"system": "whole cells of Lactobacillus brevis", "test": "Reduction of ketones with whole cells", "assay_type": "cell-based", "conditions": "after 2 h incubation at 30° C., 10 mM acetophenone, 50 mg cells, 0.1 M glucose", "procedure": "In addition ketones can be reduced to chiral alcohols using whole cells of L. brevis. […] The coenzyme regeneration can be achieved by isopropanol or by metabolizable substrates such as glucose.\nTest mixture: 50 mg cells of L. brevis (wetweight after centrifugation) is suspended in 860 μl triethanolamine buffer (50 mM; pH 7.50; addition of 1 MM MgCl^2+) which contains 0.1 M glucose and 10 mM acetophenone. Samples are analysed by means of gas chromatography. […] Since a quantification by means of GC separation on a chiral stationary phase had been carried out, it was possible to show at the same time that the phenylethanol that forms is of high optical purity but no quantifiable (S)-alcohol could be detected. The optical purity is considerably >95% for (R)-alcohol."}, "[2]": {"target": "T1, alcohol dehydrogenase from L. brevis (Levilactobacillus brevis, UniProt Q84EX5)", "T1 sequence (Q84EX5 2-252)": "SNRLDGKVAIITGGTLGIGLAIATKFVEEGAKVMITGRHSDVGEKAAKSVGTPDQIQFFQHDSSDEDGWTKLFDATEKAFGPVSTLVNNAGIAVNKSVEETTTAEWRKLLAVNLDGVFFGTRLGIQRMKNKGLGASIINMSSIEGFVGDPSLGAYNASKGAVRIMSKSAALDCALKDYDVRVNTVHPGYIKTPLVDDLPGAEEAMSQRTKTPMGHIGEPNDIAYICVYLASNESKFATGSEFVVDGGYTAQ", "test": "biochemical", "assay_type": "biochemical", "conditions": "10 mM keto compound", "procedure": "A series of other ketones and keto esters were used instead of acetophenone and it was tested whether these can be reduced by enzyme catalysis.\nThe following test mixture was used for this:\n970 μl triethanolamine buffer (50 mM; pH 7.0, containing 10 mM keto compound)\n20 μl NADPH (0.19 mM in the test)\nSome of the ketones were also tested at a concentration of 1 mM in order to verify a possible substrate inhibition at 10 mM."}, "[3]": {"target": "T2, alcohol dehydrogenase from Lactobacillus brevis (Levilactobacillus brevis, UniProt Q84EX5)", "T2 construct": "same enzyme regenerates NADPH with isopropanol", "T2 sequence (Q84EX5 2-252)": "T1 sequence (Q84EX5 2-252)", "assay_type": "biochemical", "conditions": "l. brevis alcohol dehydrogenase, 24 h, 5000 µM, pH 7", "procedure": "Purified enzyme (example 2C) and the necessary coenzyme (NADP) were used for the enzyme-catalysed synthesis of (R)-phenylethanol from acetophenone. The oxidized co-enzyme was continuously regenerated by isopropanol which was simultaneously present so that the reaction only required catalytic amounts of coenzyme. In detail the mixture contained (the final concentrations of the components in the test are listed in brackets): 20 μl NADP (0.05 mM), 7.7 μl isopropanol (0.1 M), 0.6 μl acetophenone (5 mM), 921.7 μl triethanolamine buffer (50 mM; pH 7.0, containing 1 mM MgCl2) and 50 μl alcohol dehydrogenase from Lactobacillus brevis (4.5 units). This mixture with a total volume of 1 ml was incubated for 24 hours at 30° C., then a sample was analysed by means of gas chromatography. For this 100 μl was removed, shaken out with 100 μl chloroform, the phases were separated by centrifugation and an aliquot was taken from the lower phase (chloroform) for the GC.\nThe separation conditions for the separation of (R)- and (S)-phenylethanol on a gas chromatograph: stationary phase: Lipodex E, CD column (Macherey and Nagel, Duren), mobile phase: helium, injection volumes: 1 μl detection: FID, temperature: 110° C. Under these conditions the substrate acetophenone is eluted at 10.5 min, (S)-phenylethanol at 13.8 min and (R)-phenylethanol at 14.2 min. […]"}, "[4]": {"test": "Temperature optimum of enzyme activity", "assay_type": "biochemical"}, "[5]": {"test": "Temperature stability of the alcohol dehydrogenase (30 min at temperature, measured at 30° C.)", "assay_type": "physicochemical", "conditions": "for temperature of maximum stability: 30 min", "procedure": "The temperature stability in the range of 25 to 70° C. was determined in an analogous manner to that described under A. The homogeneous enzyme solution was subjected for 30 min to the recited temperatures and subsequently measured directly at 30° C. with the above test mixture. […] In contrast the ADH from L. kefir is only stable up to 40° C. with a maximum at 37° C., afterwards the activity decreases rapidly. The maximum for this enzyme is at 37° C."}, "[6]": {"test": "pH stability of the alcohol dehydrogenase (30 min incubation, then standard acetophenone test)", "assay_type": "physicochemical", "conditions": "for Activity: 30 min", "procedure": "The dependence of the activity of the enzyme when stored in buffers with various pH values was examined in the range of pH 4 to 11. Depending on the buffer capacity various buffers in the pH range of 4 to 11 were prepared and the homogeneous enzyme was incubated therein for 30 minutes. 1 μl thereof was removed and added to the normal test reagent mixture of 970 μl triethanolamine buffer (100 mM; pH 7.0 containing 11 mM acetophenone) and 20 μl NADPH (final concentration 0.19 mM). The reaction was monitored for 1 minute at 30° C. and 340 nm."}, "[7]": {"test": "Standard enzyme test of purified enzyme (acetophenone, NADPH)", "assay_type": "biochemical", "procedure": "The process for the isolation and purification of the ADH enzyme proceeds essentially via the following process steps: disruption of the cultured cells, such as by glass beads, carrying out hydrophobic chromatography or interaction chromatography and followed by subsequent anion exchange and affinity chromatography. In particular it has proven to be advantageous when all homogenization and elution buffers contain from about 0.5 to about 5 mM magnesium. In this connection a Mg^2+ concentration of about 1 mM has proven to be particularly advantageous. In this manner an enzyme is obtained which has a specific activity of at least 400 U/mg and in many cases up to 500 U/mg.\nThe enzyme was released from the cells by wet-grinding with the aid of glass beads (0.3 mm), but can also be achieved by any other method for disrupting bacterial cells. The bacterial mass is diluted to a 40% suspension with 0.1 M acetate buffer pH 4.0+1 mM MgCl2 supplemented with an antifoaming agent (polypropylene glycol). This was subjected to a 20 minute disruption while cooling continuously in a disintegrator (IMA Co.) at 4000 rpm with addition of glass beads in a ratio of 1:2. 8 g bacteria yielded 10 ml crude extract with a volume activity of 40 U/ml and a protein content of ca. 3 mg/ml. […]"}, "[8]": {"conditions": "listed as enzyme according to the invention"}}, "note": "Like-named read-outs stand apart in the source and are kept apart here."}
{"molecule": "CC(=O)c1ccccc1", "note": "[acetophenone]", "values": [{"measurement": "substrate remaining (GC)", "setting": "[1]", "value": "no longer detectable"}, {"measurement": "Activity", "setting": "[2]; 0.19 mM NADPH, pH 7.0, purified enzyme diluted 1:10", "value": 3.26, "unit": "U/ml"}, {"measurement": "activity at 10000 µM", "setting": "[2]; relative to acetophenone = 100, read-out: Relative act.", "value": 100, "unit": "%"}, {"measurement": "substrate converted", "setting": "[3]", "value": "more than 95%"}]}
{"molecule": "B1", "values": [{"measurement": "optimal test temperature (activity maximum)", "setting": "[4]", "value": 50, "unit": "°C"}, {"measurement": "optimal test temperature (activity maximum)", "setting": "[4]; [8]", "value": "ca. 50 °C"}, {"measurement": "act. (temperature optimum)", "setting": "[4]; test temperature 25° C.", "value": 10.31, "unit": "U/ml"}, {"measurement": "act. (temperature optimum)", "setting": "[4]; test temperature 30° C.", "value": 9.66, "unit": "U/ml"}, {"measurement": "act. (temperature optimum)", "setting": "[4]; test temperature 37° C.", "value": 9.76, "unit": "U/ml"}, {"measurement": "act. (temperature optimum)", "setting": "[4]; test temperature 40° C.", "value": 17.78, "unit": "U/ml"}, {"measurement": "act. (temperature optimum)", "setting": "[4]; test temperature 42° C.", "value": 16.93, "unit": "U/ml"}, {"measurement": "act. (temperature optimum)", "setting": "[4]; test temperature 45° C.", "value": 18.06, "unit": "U/ml"}, {"measurement": "act. (temperature optimum)", "setting": "[4]; test temperature 47° C.", "value": 19.13, "unit": "U/ml"}, {"measurement": "act. (temperature optimum)", "setting": "[4]; test temperature 50° C.", "value": 31.46, "unit": "U/ml"}, {"measurement": "act. (temperature optimum)", "setting": "[4]; test temperature 55° C.", "value": 24.48, "unit": "U/ml"}, {"measurement": "act. (temperature optimum)", "setting": "[4]; test temperature 60° C.", "value": 23.69, "unit": "U/ml"}, {"measurement": "act. (temperature optimum)", "setting": "[4]; test temperature 65° C.", "value": 1.98, "unit": "U/ml"}, {"measurement": "act. (temperature optimum)", "setting": "[4]; test temperature 70° C.", "value": 0.58, "unit": "U/ml"}, {"measurement": "temperature at which the enzyme is inactivated by 50% (thermal deactivation)", "setting": "[5]", "value": "about 65 °C"}, {"measurement": "retained activity", "setting": "[5]; 50 mM MES buffer, about 30 minutes, between 25° C. and 60° C.", "value": "over 95%"}, {"measurement": "temperature of maximum stability", "setting": "[5]", "value": 40, "unit": "°C"}, {"measurement": "temperature of maximum stability", "setting": "[5]; [8]", "value": "ca. 40 °C"}, {"measurement": "act. (temperature stability)", "setting": "[5]; 30 min at 25° C.", "value": 9.43, "unit": "U/ml"}, {"measurement": "act. (temperature stability)", "setting": "[5]; 30 min at 30° C.", "value": 8.74, "unit": "U/ml"}, {"measurement": "act. (temperature stability)", "setting": "[5]; 30 min at 37° C.", "value": 12.06, "unit": "U/ml"}, {"measurement": "act. (temperature stability)", "setting": "[5]; 30 min at 40° C.", "value": 12.15, "unit": "U/ml"}, {"measurement": "act. (temperature stability)", "setting": "[5]; 30 min at 42° C.", "value": 11.16, "unit": "U/ml"}, {"measurement": "act. (temperature stability)", "setting": "[5]; 30 min at 45° C.", "value": 10.81, "unit": "U/ml"}, {"measurement": "act. (temperature stability)", "setting": "[5]; 30 min at 47° C.", "value": 8.23, "unit": "U/ml"}, {"measurement": "act. (temperature stability)", "setting": "[5]; 30 min at 50° C.", "value": 8.37, "unit": "U/ml"}, {"measurement": "act. (temperature stability)", "setting": "[5]; 30 min at 60° C.", "value": 8.51, "unit": "U/ml"}, {"measurement": "act. (temperature stability)", "setting": "[5]; 30 min at 70° C.", "value": 0.56, "unit": "U/ml"}, {"measurement": "Activity", "setting": "[6]; pH 4.0, Na acetate/acetic acid", "value": 6.86, "unit": "U/ml"}, {"measurement": "pH value of maximum stability (larger maximum)", "setting": "[6]; pH 4 to 11, 30 min", "value": 9.0}, {"measurement": "pH value of the smaller maximum of pH stability", "setting": "[6]; pH 4 to 11, 30 min", "value": 5.5}, {"measurement": "pH value of maximum stability (larger maximum)", "setting": "[6]; pH 4 to 11, 30 min, listed as ADHs according to the invention", "value": "about 9.0"}, {"measurement": "Activity", "setting": "[6]; pH 4.5, Na acetate/acetic acid", "value": 6.22, "unit": "U/ml"}, {"measurement": "Activity", "setting": "[6]; pH 5.0, MES/NaOH", "value": 7.04, "unit": "U/ml"}, {"measurement": "Activity", "setting": "[6]; pH 5.5, MES/MaOH", "value": 8.73, "unit": "U/ml"}, {"measurement": "Activity", "setting": "[6]; pH 6.0, triethanolamine/NaOH", "value": 5.58, "unit": "U/ml"}, {"measurement": "Activity", "setting": "[6]; pH 6.5, triethanolamine/NaOH", "value": 5.80, "unit": "U/ml"}, {"measurement": "Activity", "setting": "[6]; pH 7.0, triethanolamine/NaOH", "value": 6.57, "unit": "U/ml"}, {"measurement": "Activity", "setting": "[6]; pH 7.5, Tris/HCl", "value": 5.04, "unit": "U/ml"}, {"measurement": "Activity", "setting": "[6]; pH 8.0, Tris/HCl", "value": 3.83, "unit": "U/ml"}, {"measurement": "Activity", "setting": "[6]; pH 8.5, Tris/HCl", "value": 8.42, "unit": "U/ml"}, {"measurement": "Activity", "setting": "[6]; pH 9.0, Tris/HCl", "value": 17.11, "unit": "U/ml"}, {"measurement": "Activity", "setting": "[6]; pH 10.0, glycine/NaOH", "value": 1.25, "unit": "U/ml"}, {"measurement": "Activity", "setting": "[6]; pH 11.0, glycine/NaOH", "value": 2.43, "unit": "U/ml"}, {"measurement": "specific activity", "setting": "[7]", "value": "at least 400 U/mg"}]}
